The supplement of paper PMC11246515
± gives the standard deviation of the averaged measurements.

Experiment: total protein half-life in vivo (active degradation + dilution); higher = more stable protein
[1] = E. coli NCM3722 delta-clpP delta-lon delta-hslV, growth: N-lim chemostat, doubling time 6 h
[2] = E. coli NCM3722 delta-clpP, growth: N-lim chemostat, doubling time 6 h
[3] = E. coli NCM3722 delta-hslV, growth: N-lim chemostat, doubling time 6 h
[4] = E. coli NCM3722 delta-lon, growth: N-lim chemostat, doubling time 6 h
[5] = E. coli NCM3722 delta-smpB, growth: N-lim chemostat, doubling time 6 h
[6] = wild type E. coli NCM3722, growth: C-lim chemostat, doubling time 3 h
[7] = wild type E. coli NCM3722, growth: C-lim chemostat, doubling time 6 h
[8] = wild type E. coli NCM3722, growth: C-lim chemostat, doubling time 12 h
[9] = wild type E. coli NCM3722, growth: N-lim chemostat, doubling time 6 h
[10] = wild type E. coli NCM3722, growth: N-lim chemostat, doubling time 12 h
[11] = wild type E. coli NCM3722, growth: P-lim chemostat, doubling time 6 h
[12] = wild type E. coli NCM3722, growth: P-lim chemostat, doubling time 12 h

| Sequence | total protein half-life in vivo [1] [h] | total protein half-life in vivo [2] [h] | total protein half-life in vivo [3] [h] | total protein half-life in vivo [4] [h] | total protein half-life in vivo [5] [h] | total protein half-life in vivo [6] [h] | total protein half-life in vivo [7] [h] | total protein half-life in vivo [8] [h] | total protein half-life in vivo [9] [h] | total protein half-life in vivo [10] [h] | total protein half-life in vivo [11] [h] | total protein half-life in vivo [12] [h] |
| --- | --- | --- | --- | --- | --- | --- | --- | --- | --- | --- | --- | --- |
| MIETLLEVRNLSKTFRYRTGWFRRQTVEAVKPLSFTLREGQTLAIIGENGSGKSTLAKMLAGMIEPTSGELLIDDHPLHFGDYSFRSQRIRMIFQDPSTSLNPRQRISQILDFPLRLNTDLEPEQRRKQIIETMRMVGLLPDHVSYYPHMLAPGQKQRLGLARALILRPKVIIADEALASLDMSMRSQLINLMLELQEKQGISYIYVTQHIGMMKHISDQVLVMHQGEVVERGSTADVLASPLHELTKRLIAGHFGEALTADAWRKDR [P0AAH8] | 5.82 ± 0.14 | 5.86 ± 0.16 | 5.99 ± 0.16 | 5.26 ± 1.3 | 5.78 ± 0.3 | 2.97 ± 0.16 | 5.78 ± 0.22 | 11.5 ± 2.9 | 5.53 ± 0.077 | 12.1 ± 1.1 | 6.03 ± 0.55 | 12.51 ± 0.086 |
| MRSFSQLWPTLKRLLAYGSPWRKPLGIAVLMMWVAAAAEVSGPLLISYFIDNMVAKNNLPLKVVAGLAAAYVGLQLFAAGLHYAQSLLFNRAAVGVVQQLRTDVMDAALRQPLSEFDTQPVGQVISRVTNDTEVIRDLYVTVVATVLRSAALVGAMLVAMFSLDWRMALVAIMIFPVVLVVMVIYQRYSTPIVRRVRAYLADINDGFNEIINGMSVIQQFRQQARFGERMGEASRSHYMARMQTLRLDGFLLRPLLSLFSSLILCGLLMLFGFSASGTIEVGVLYAFISYLGRLNEPLIELTTQQAMLQQAVVAGERVFELMDGPRQQYGNDDRPLQSGTIEVDNVSFAYRDDNLVLKNINLSVPSRNFVALVGHTGSGKSTLASLLMGYYPLTEGEIRLDGRPLSSLSHSALRQGVAMVQQDPVVLADTFLANVTLGRDISEERVWQALETVQLAELARSMSDGIYTPLGEQGNNLSVGQKQLLALARVLVETPQILILDEATASIDSGTEQAIQHALAAVREHTTLVVIAHRLSTIVDADTILVLHRGQAVEQGTHQQLLAAQGRYWQMYQLQLAGEELAASVREEESLSA [P0AAG5] | 6.44 ± 0.43 | 6 ± 0.12 | 4.33 ± 0.16 | 3.97 ± 0.13 | 4.31 ± 0.43 | 2.85 | 4.47 ± 0.42 | 8.8 ± 2.3 | 4.589 ± 0.038 | 6.71 ± 0.085 | 5.09 ± 0.38 | 10.3 ± 0.7 |
| MATLLQLHFAFNGPFGDAMAEQLKPLAESINQEPGFLWKVWTESEKNHEAGGIYLFTDEKSALAYLEKHTARLKNLGVEEVVAKVFDVNEPLSQINQAKLA [P0ACX3] | 5.41 ± 1.1 | 3.68 ± 0.39 | 3.94 ± 0.085 | 5.96 ± 0.17 | 4.07 ± 0.095 | 3.22 ± 0.24 | 4.809 ± 0.035 | 8.79 ± 2.3 | 3.27 ± 0.054 | 5.75 ± 0.85 | 4.79 ± 0.49 | 10.1 ± 1.1 |
| MFLVDSHCHLDGLDYESLHKDVDDVLAKAAARDVKFCLAVATTLPGYLHMRDLVGERDNVVFSCGVHPLNQNDPYDVEDLRRLAAEEGVVALGETGLDYYYTPETKVRQQESFIHHIQIGRELNKPVIVHTRDARADTLAILREEKVTDCGGVLHCFTEDRETAGKLLDLGFYISFSGIVTFRNAEQLRDAARYVPLDRLLVETDSPYLAPVPHRGKENQPAMVRDVAEYMAVLKGVAVEELAQVTTDNFARLFHIDASRLQSIR [P0AFQ7] | 4.81 ± 0.12 | 3.33 ± 0.04 | 3.06 ± 0.22 | 3.76 ± 0.27 | 2.97 ± 0.21 | 2.46 ± 0.053 | 4.73 ± 0.61 | 9.89 ± 2.7 | 3.63 ± 0.31 | 5.34 ± 1.1 | 4.39 ± 0.14 | 7.55 ± 0.79 |
| MSAIENFDAHTPMMQQYLRLKAQHPEILLFYRMGDFYELFYDDAKRASQLLDISLTKRGASAGEPIPMAGIPYHAVENYLAKLVNQGESVAICEQIGDPATSKGPVERKVVRIVTPGTISDEALLQERQDNLLAAIWQDSKGFGYATLDISSGRFRLSEPADRETMAAELQRTNPAELLYAEDFAEMSLIEGRRGLRRRPLWEFEIDTARQQLNLQFGTRDLVGFGVENAPRGLCAAGCLLQYAKDTQRTTLPHIRSITMEREQDSIIMDAATRRNLEITQNLAGGAENTLASVLDCTVTPMGSRMLKRWLHMPVRDTRVLLERQQTIGALQDFTAGLQPVLRQVGDLERILARLALRTARPRDLARMRHAFQQLPELRAQLETVDSAPVQALREKMGEFAELRDLLERAIIDTPPVLVRDGGVIASGYNEELDEWRALADGATDYLERLEVRERERTGLDTLKVGFNAVHGYYIQISRGQSHLAPINYMRRQTLKNAERYIIPELKEYEDKVLTSKGKALALEKQLYEELFDLLLPHLEALQQSASALAELDVLVNLAERAYTLNYTCPTFIDKPGIRITEGRHPVVEQVLNEPFIANPLNLSPQRRMLIITGPNMGGKSTYMRQTALIALMAYIGSYVPAQKVEIGPIDRIFTRVGAADDLASGRSTFMVEMTETANILHNATEYSLVLMDEIGRGTSTYDGLSLAWACAENLANKIKALTLFATHYFELTQLPEKMEGVANVHLDALEHGDTIAFMHSVQDGAASKSYGLAVAALAGVPKEVIKRARQKLRELESISPNAAATQVDGTQMSLLSVPEETSPAVEALENLDPDSLTPRQALEWIYRLKSLV | 5.91 ± 0.07 | 5.059 ± 0.028 | 3.51 ± 0.062 | 3.99 ± 0.046 | 3.329 ± 0.022 | 2.84 ± 0.36 | 4.96 ± 0.41 | 9.15 ± 1.4 | 3.7765 ± 0.0035 | 5.56 ± 0.91 | 4.78 ± 0.42 | 7.5 ± 0.22 |
| MRISLKKSGMLKLGLSLVAMTVAASVQAKTLVYCSEGSPEGFNPQLFTSGTTYDASSVPLYNRLVEFKIGTTEVIPGLAEKWEVSEDGKTYTFHLRKGVKWHDNKEFKPTRELNADDVVFSFDRQKNAQNPYHKVSGGSYEYFEGMGLPELISEVKKVDDNTVQFVLTRPEAPFLADLAMDFASILSKEYADAMMKAGTPEKLDLNPIGTGPFQLQQYQKDSRIRYKAFDGYWGTKPQIDTLVFSITPDASVRYAKLQKNECQVMPYPNPADIARMKQDKSINLMEMPGLNVGYLSYNVQKKPLDDVKVRQALTYAVNKDAIIKAVYQGAGVSAKNLIPPTMWGYNDDVQDYTYDPEKAKALLKEAGLEKGFSIDLWAMPVQRPYNPNARRMAEMIQADWAKVGVQAKIVTYEWGEYLKRAKDGEHQTVMMGWTGDNGDPDNFFATLFSCAASEQGSNYSKWCYKPFEDLIQPARATDDHNKRVELYKQAQVVMHDQAPALIIAHSTVFEPVRKEVKGYVVDPLGKHHFENVSIE | 6.22 ± 0.29 | 6.39 ± 1.1 | 6.489 ± 0.018 | 6.6 ± 0.13 | 5.83 ± 0.096 | 3.33 ± 0.069 | 6.97 ± 1.4 | 14.3 ± 1.9 | 6.058 ± 0.029 | 12.9 ± 0.92 | 6.06 ± 0.45 | 13.1 ± 0.31 |
